Usually kcat/Km stands for the second-order rate constant that governs catalysis at low substrate concentration.

In series [1] the test system is N=C(N)NCCC[C@H](NC(=O)OCc1ccccc1)C(=O)N[C@@H](CCCNC(=N)N)C(=O)Nc1ccc2ccc(=O)oc2c1. In words: (§1) Inhibition of human cathepsin B assessed as ratio of Kcat/Km using Z-Phe-Arg-MCA as substrate by spectrofluorometric method.
Series [2] deals with N=C(N)NCCC[C@H](NC(=O)[C@H](Cc1ccc(NC(=N)N)cc1)NC(=O)OCc1ccccc1)C(=O)Nc1ccc2ccc(=O)oc2c1. Described as §1.
Series [3] concerns N=C(N)NCCC[C@H](NC(=O)[C@H](Cc1ccccc1)NC(=O)OCc1ccccc1)C(=O)Nc1ccc2ccc(=O)oc2c1. Described as §1.
Series [4] has as its system N=C(N)NCCC[C@H](NC(=O)[C@H](Cc1ccncc1)NC(=O)OCc1ccccc1)C(=O)Nc1ccc2ccc(=O)oc2c1. The description is as §1.

Consider Cathepsin B (Homo sapiens), for which the kcat/Km stood at 554000 M⁻¹ s⁻¹ in series [1], 1.57e+06 M⁻¹ s⁻¹ in series [2], 2.32e+06 M⁻¹ s⁻¹ in series [3] and 742000 M⁻¹ s⁻¹ in series [4].

Values taken from ChEMBL document CHEMBL4321793, “Can Cysteine Protease Cross-Class Inhibitors Achieve Selectivity?” (J Med Chem, 2019).
